B1: EH domain-containing protein 3 (Homo sapiens), Q9NZN3 (parent)
chain: MFSWLGTDDRRRKDPEVFQTVSEGLKKLYKSKLLPLEEHYRFHEFHSPALEDADFDNKPMVLLVGQYSTGKTTFIRYLLEQDFPGMRIGPEPTTDSFIAVMQGDMEGIIPGNALVVDPKKPFRKLNAFGNAFLNRFVCAQLPNPVLESISVIDTPGILSGEKQRISRGYDFAAVLEWFAERVDRIILLFDAHKLDISDEFSEVIKALKNHEDKMRVVLNKADQIETQQLMRVYGALMWSLGKIVNTPEVIRVYIGSFWSHPLLIPDNRKLFEAEEQDLFRDIQSLPRNAALRKLNDLIKRARLAKVHAYIISSLKKEMPSVFGKDNKKKELVNNLAEIYGRIEREHQISPGDFPNLKRMQDQLQAQDFSKFQPLKSKLLEVVDDMLAHDIAQLMVLVRQEESQRPIQMVKGGAFEGTLHGPFGHGYGEGAGEGIDDAEWVVARDKPMYDEIFYTLSPVDGKITGANAKKEMVRSKLPNSVLGKIWKLADIDKDGMLDDDEFALANHLIKVKLEGHELPNELPAHLLPPSKRKVAE
partner: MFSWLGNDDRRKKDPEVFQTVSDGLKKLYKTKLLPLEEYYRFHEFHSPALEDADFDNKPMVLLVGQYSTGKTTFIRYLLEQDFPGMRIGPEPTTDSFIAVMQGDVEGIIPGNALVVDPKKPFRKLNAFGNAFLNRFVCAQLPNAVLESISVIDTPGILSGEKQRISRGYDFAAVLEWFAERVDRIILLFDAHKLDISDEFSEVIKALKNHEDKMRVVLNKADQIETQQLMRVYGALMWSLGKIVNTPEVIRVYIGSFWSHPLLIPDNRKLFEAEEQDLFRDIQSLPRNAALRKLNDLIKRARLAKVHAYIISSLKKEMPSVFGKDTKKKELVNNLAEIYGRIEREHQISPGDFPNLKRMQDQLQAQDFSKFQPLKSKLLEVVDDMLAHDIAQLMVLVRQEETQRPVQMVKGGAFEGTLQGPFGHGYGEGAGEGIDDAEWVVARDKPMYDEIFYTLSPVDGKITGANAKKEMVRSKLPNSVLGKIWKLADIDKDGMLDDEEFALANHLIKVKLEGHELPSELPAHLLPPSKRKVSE
B2: EH domain-containing protein 3 (Mus musculus), Q9QXY6 (parent)
chain: B1 partner
partner: B1 chain

Variants of: B1
Settings: with ehd3_mouse Ehd3, Q9QXY6

| Variant | effect of a mutation on the interaction |
| --- | --- |
| MFSWLGTDDRRRKDPEVFQTVSEGLKKLYKSKLLPLEEHYRFHEFHSPALEDADFDNKPMVLLVGQYSTGKTTFIRYLLEQDFPGMRIGPEPTTDSFIAVMQGDMEGIIPGNALVVDPKKPFRKLNAFGNAFLNRFVCAQLPNPVLESISVIDTPGILSGEKQRISRGYDFAAVLEWFAERVDRIILLFDAHKLDISDEFSEVIKALKNHEDKMRVVLNKADQIETQQLMRVYGALMWSLGKIVNTPEVIRVYIGSFWSHPLLIPDNRKLFEAEEQDLFRDIQSLPRNAALRKLNDLIKRARLAKVHAYIISSLRKEMPSVFGKDNKKKELVNNLAEIYGRIEREHQISPGDFPNLKRMQDQLQAQDFSKFQPLKSKLLEVVDDMLAHDIAQLMVLVRQEESQRPIQMVKGGAFEGTLHGPFGHGYGEGAGEGIDDAEWVVARDKPMYDEIFYTLSPVDGKITGANAKKEMVRSKLPNSVLGKIWKLADIDKDGMLDDDEFALANHLIKVKLEGHELPNELPAHLLPPSKRKVAE [K315R] | with no effect |

Variants of: B1
Settings: with ehd3_mouse Ehd3, Q9QXY6
Remark: another data set of the same source

| Variant | effect of a mutation on the interaction |
| --- | --- |
| MFSWLGTDDRRRKDPEVFQTVSEGLKKLYKSKLLPLEEHYRFHEFHSPALEDADFDNKPMVLLVGQYSTGKTTFIRYLLEQDFPGMRIGPEPTTDSFIAVMQGDMEGIIPGNALVVDPKKPFRKLNAFGNAFLNRFVCAQLPNPVLESISVIDTPGILSGEKQRISRGYDFAAVLEWFAERVDRIILLFDAHKLDISDEFSEVIKALKNHEDKMRVVLNKADQIETQQLMRVYGALMWSLGKIVNTPEVIRVYIGSFWSHPLLIPDNRKLFEAEEQDLFRDIQSLPRNAALRKLNDLIKRARLAKVHAYIISSLKKEMPSVFGKDNKKKELVNNLAEIYGRIEREHQISPGDFPNLKRMQDQLQAQDFSKFQPLKSKLLEVVDDMLAHDIAQLMVLVRQEESQRPIQMVKGGAFEGTLHGPFGHGYGEGAGEGIDDAEWVVARDKPMYDEIFYTLSPVDGKITGANAKKEMVRSKLPNSVLGKIWKLADIDKDGMLDDDEFALANHLIKVRLEGHELPNELPAHLLPPSKRKVAE [K511R] | with no effect |

Variants of: B1
Settings: with ehd3_mouse Ehd3, Q9QXY6
Remark: another data set of the same source

| Variant | effect of a mutation on the interaction |
| --- | --- |
| MFSWLGTDDRRRKDPEVFQTVSEGLKKLYKSKLLPLEEHYRFHEFHSPALEDADFDNKPMVLLVGQYSTGKTTFIRYLLEQDFPGMRIGPEPTTDSFIAVMQGDMEGIIPGNALVVDPKKPFRKLNAFGNAFLNRFVCAQLPNPVLESISVIDTPGILSGEKQRISRGYDFAAVLEWFAERVDRIILLFDAHKLDISDEFSEVIKALKNHEDKMRVVLNKADQIETQQLMRVYGALMWSLGKIVNTPEVIRVYIGSFWSHPLLIPDNRKLFEAEEQDLFRDIQSLPRNAALRKLNDLIKRARLAKVHAYIISSLRKEMPSVFGKDNKKKELVNNLAEIYGRIEREHQISPGDFPNLKRMQDQLQAQDFSKFQPLKSKLLEVVDDMLAHDIAQLMVLVRQEESQRPIQMVKGGAFEGTLHGPFGHGYGEGAGEGIDDAEWVVARDKPMYDEIFYTLSPVDGKITGANAKKEMVRSKLPNSVLGKIWKLADIDKDGMLDDDEFALANHLIKVRLEGHELPNELPAHLLPPSKRKVAE [K315R;K511R] | with no effect |

Variants of: B2
Settings: with ehd3_human EHD3, Q9NZN3

| Variant | effect of a mutation on the interaction |
| --- | --- |
| MFSWLGNDDRRKKDPEVFQTVSDGLKKLYKTKLLPLEEYYRFHEFHSPALEDADFDNKPMVLLVGQYSTGKTTFIRYLLEQDFPGMRIGPEPTTDSFIAVMQGDVEGIIPGNALVVDPKKPFRKLNAFGNAFLNRFVCAQLPNAVLESISVIDTPGILSGEKQRISRGYDFAAVLEWFAERVDRIILLFDAHKLDISDEFSEVIKALKNHEDKMRVVLNKADQIETQQLMRVYGALMWSLGKIVNTPEVIRVYIGSFWSHPLLIPDNRKLFEAEEQDLFRDIQSLPRNAALRKLNDLIKRARLAKVHAYIISSLKKEMPSVFGKDTKKKELVNNLAEIYGRIEREHQISPGDFPNLKRMQDQLQAQDFSKFQPLKSKLLEVVDDMLAHDIAQLMVLVRQEETQRPVQMVKGGAFEGTLQGPFGHGYGEGAGEGIDDAEWVVARDKPMYDEIFYTLSPVDGKITGANAKKEMVRSKLPNSVLGKIWKLADIDKDGMLDDEEFALANHLIKVRLEGHELPSELPAHLLPPSKRKVSE [K511R] | decreasing interaction |
| MFSWLGNDDRRKKDPEVFQTVSDGLKKLYKTKLLPLEEYYRFHEFHSPALEDADFDNKPMVLLVGQYSTGKTTFIRYLLEQDFPGMRIGPEPTTDSFIAVMQGDVEGIIPGNALVVDPKKPFRKLNAFGNAFLNRFVCAQLPNAVLESISVIDTPGILSGEKQRISRGYDFAAVLEWFAERVDRIILLFDAHKLDISDEFSEVIKALKNHEDKMRVVLNKADQIETQQLMRVYGALMWSLGKIVNTPEVIRVYIGSFWSHPLLIPDNRKLFEAEEQDLFRDIQSLPRNAALRKLNDLIKRARLAKVHAYIISSLRKEMPSVFGKDTKKKELVNNLAEIYGRIEREHQISPGDFPNLKRMQDQLQAQDFSKFQPLKSKLLEVVDDMLAHDIAQLMVLVRQEETQRPVQMVKGGAFEGTLQGPFGHGYGEGAGEGIDDAEWVVARDKPMYDEIFYTLSPVDGKITGANAKKEMVRSKLPNSVLGKIWKLADIDKDGMLDDEEFALANHLIKVRLEGHELPSELPAHLLPPSKRKVSE [K315R;K511R] | decreasing interaction |

Variants of: B2
Settings: with ehd3_human EHD3, Q9NZN3
Remark: another data set of the same source

| Variant | effect of a mutation on the interaction |
| --- | --- |
| MFSWLGNDDRRKKDPEVFQTVSDGLKKLYKTKLLPLEEYYRFHEFHSPALEDADFDNKPMVLLVGQYSTGKTTFIRYLLEQDFPGMRIGPEPTTDSFIAVMQGDVEGIIPGNALVVDPKKPFRKLNAFGNAFLNRFVCAQLPNAVLESISVIDTPGILSGEKQRISRGYDFAAVLEWFAERVDRIILLFDAHKLDISDEFSEVIKALKNHEDKMRVVLNKADQIETQQLMRVYGALMWSLGKIVNTPEVIRVYIGSFWSHPLLIPDNRKLFEAEEQDLFRDIQSLPRNAALRKLNDLIKRARLAKVHAYIISSLRKEMPSVFGKDTKKKELVNNLAEIYGRIEREHQISPGDFPNLKRMQDQLQAQDFSKFQPLKSKLLEVVDDMLAHDIAQLMVLVRQEETQRPVQMVKGGAFEGTLQGPFGHGYGEGAGEGIDDAEWVVARDKPMYDEIFYTLSPVDGKITGANAKKEMVRSKLPNSVLGKIWKLADIDKDGMLDDEEFALANHLIKVRLEGHELPSELPAHLLPPSKRKVSE [K315R;K511R] | with no effect |
